Source: paper PMC314469, “Protein Interaction Networks by Proteome Peptide Scanning” (PLoS Biology, 2004)

How the values were obtained:
[1] = molecular target: T1, amphyphisin SH3 (AMPH_HUMAN), P49418; assay: SPOT array
T1 chain: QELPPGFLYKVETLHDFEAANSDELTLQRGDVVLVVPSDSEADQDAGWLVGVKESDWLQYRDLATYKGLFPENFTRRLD

[2] = molecular target: endophilin SH3 (SH3G2_HUMAN), Q99962; assay: SPOT array

B1: Q9H669 126-139 (peptide)
chain: ISHRLRRPGAPPST
[1]
  normalised SPOT signal, Boehringer light units (BLU); mean over the file's lines of this peptide: 9.8
[2]
  normalised SPOT signal, Boehringer light units (BLU); mean over the file's lines of this peptide: 120

B2: Q01118 1027-1040 (peptide)
chain: ISMKFLRPLRVLSQ
[1]
  normalised SPOT signal, Boehringer light units (BLU); mean over the file's lines of this peptide: 13100
[2]
  normalised SPOT signal, Boehringer light units (BLU); mean over the file's lines of this peptide: 925

B3: O00155 224-237 (peptide)
chain: ISRRLRRPPHVGRA
[1]
  normalised SPOT signal, Boehringer light units (BLU); mean over the file's lines of this peptide: 56.5
[2]
  normalised SPOT signal, Boehringer light units (BLU); mean over the file's lines of this peptide: 5.9

B4: O75643 1042-1055 (peptide)
chain: ISSQIERPIRIVAL
[1]
  normalised SPOT signal, Boehringer light units (BLU); mean over the file's lines of this peptide: 535
[2]
  normalised SPOT signal, Boehringer light units (BLU); mean over the file's lines of this peptide: 173

B5: Q01826 463-477 (peptide)
chain: ISTPPSRPPQVKTA
[1]
  normalised SPOT signal, Boehringer light units (BLU); mean over the file's lines of this peptide: 216
[2]
  normalised SPOT signal, Boehringer light units (BLU); mean over the file's lines of this peptide: 1960

B6: P50749 58-71 (peptide)
chain: ISWGLRRPIRLQMQ
[1]
  normalised SPOT signal, Boehringer light units (BLU); mean over the file's lines of this peptide: 929
[2]
  normalised SPOT signal, Boehringer light units (BLU); mean over the file's lines of this peptide: 730

B7: Q9H6Z2 106-119 (peptide)
chain: ALTLPRRPFLHSST
[1]
  normalised SPOT signal, Boehringer light units (BLU); mean over the file's lines of this peptide: 1530
[2]
  normalised SPOT signal, Boehringer light units (BLU); mean over the file's lines of this peptide: 7630

B8: O14514 1249-1262 (peptide)
chain: ITGTLKRPSLPEEE
[1]
  normalised SPOT signal, Boehringer light units (BLU); mean over the file's lines of this peptide: 36.3
[2]
  normalised SPOT signal, Boehringer light units (BLU); mean over the file's lines of this peptide: 18.8

B9: P24821 757-770 (peptide)
chain: ITKSLRRPETSYRQ
[1]
  normalised SPOT signal, Boehringer light units (BLU); mean over the file's lines of this peptide: 39.1
[2]
  normalised SPOT signal, Boehringer light units (BLU); mean over the file's lines of this peptide: 46.8

B10: Q9H5F9 434-447 (peptide)
chain: ITLTPVRPDRTPRP
[1]
  normalised SPOT signal, Boehringer light units (BLU); mean over the file's lines of this peptide: 6730
[2]
  normalised SPOT signal, Boehringer light units (BLU); mean over the file's lines of this peptide: 6160

B11: Q9UFP7 465-479 (peptide)
chain: ITVSPNKPPAVSPG
[1]
  normalised SPOT signal, Boehringer light units (BLU); mean over the file's lines of this peptide: 41.6
[2]
  normalised SPOT signal, Boehringer light units (BLU); mean over the file's lines of this peptide: 59.3

B12: Q9Y4F1 101-114 (peptide)
chain: IVKQIRRPKHVVVK
[1]
  normalised SPOT signal, Boehringer light units (BLU); mean over the file's lines of this peptide: 13
[2]
  normalised SPOT signal, Boehringer light units (BLU); mean over the file's lines of this peptide: 43.3

B13: Q9Y5I0 277-290 (peptide)
chain: IVYSFRRPVWPAVV
[1]
  normalised SPOT signal, Boehringer light units (BLU); mean over the file's lines of this peptide: 27.4
[2]
  normalised SPOT signal, Boehringer light units (BLU); mean over the file's lines of this peptide: 147

B14: Q14699 89-102 (peptide)
chain: IYSTLKRPQVETKI
[1]
  normalised SPOT signal, Boehringer light units (BLU); mean over the file's lines of this peptide: 19.8
[2]
  normalised SPOT signal, Boehringer light units (BLU); mean over the file's lines of this peptide: 114

B15: Q9UJU8 278-291 (peptide)
chain: IYTELSRPSKRRMQ
[1]
  normalised SPOT signal, Boehringer light units (BLU); mean over the file's lines of this peptide: 85
[2]
  normalised SPOT signal, Boehringer light units (BLU); mean over the file's lines of this peptide: 60.3

B16: P42702 4-17 (peptide)
chain: IYVSLKRPSWMVDN
[1]
  normalised SPOT signal, Boehringer light units (BLU); mean over the file's lines of this peptide: 56.9
[2]
  normalised SPOT signal, Boehringer light units (BLU); mean over the file's lines of this peptide: 46.4

B17: Q8WZ42 18722-18736 (peptide)
chain: KASRPIKPPGPPIN
[1]
  normalised SPOT signal, Boehringer light units (BLU); mean over the file's lines of this peptide: 48.3
[2]
  normalised SPOT signal, Boehringer light units (BLU); mean over the file's lines of this peptide: 2120

B18: BAC03837 101-115 (peptide)
chain: ALTSPGRPPMGFTT
[1]
  normalised SPOT signal, Boehringer light units (BLU); mean over the file's lines of this peptide: 51.2
[2]
  normalised SPOT signal, Boehringer light units (BLU); mean over the file's lines of this peptide: 260

B19: Q9ULL8 1100-1114 (peptide)
chain: KAFPPPRPPPPNWE
[1]
  normalised SPOT signal, Boehringer light units (BLU); mean over the file's lines of this peptide: 146
[2]
  normalised SPOT signal, Boehringer light units (BLU); mean over the file's lines of this peptide: 13600

B20: Q9P2M4 294-308 (peptide)
chain: KAGRPSKPPSPKQN
[1]
  normalised SPOT signal, Boehringer light units (BLU); mean over the file's lines of this peptide: 28
[2]
  normalised SPOT signal, Boehringer light units (BLU); mean over the file's lines of this peptide: 3150

B21: Q9H2U9 455-468 (peptide)
chain: KAGSISRPAKDESD
[1]
  normalised SPOT signal, Boehringer light units (BLU); mean over the file's lines of this peptide: 164
[2]
  normalised SPOT signal, Boehringer light units (BLU); mean over the file's lines of this peptide: 127

B22: Q9Y4Z6 67-80 (peptide)
chain: KAISFLRPTKENVD
[1]
  normalised SPOT signal, Boehringer light units (BLU); mean over the file's lines of this peptide: 56.2
[2]
  normalised SPOT signal, Boehringer light units (BLU); mean over the file's lines of this peptide: 68.6

B23: Q9UFC0 257-271 (peptide)
chain: KANSPEKPPEAGAA
[1]
  normalised SPOT signal, Boehringer light units (BLU); mean over the file's lines of this peptide: 40.8
[2]
  normalised SPOT signal, Boehringer light units (BLU); mean over the file's lines of this peptide: 47.6

B24: Q9P283 1-15 (peptide)
chain: AAPFPDRPPAHLVS
[1]
  normalised SPOT signal, Boehringer light units (BLU); mean over the file's lines of this peptide: 48.1
[2]
  normalised SPOT signal, Boehringer light units (BLU); mean over the file's lines of this peptide: 90.4

B25: Q9C0I2 1104-1117 (peptide)
chain: KAPPPTRPKRNDST
[1]
  normalised SPOT signal, Boehringer light units (BLU); mean over the file's lines of this peptide: 8570
[2]
  normalised SPOT signal, Boehringer light units (BLU); mean over the file's lines of this peptide: 3140

B26: AAH32349 3-17 (peptide)
chain: KAVLPLRPPWPLWG
[1]
  normalised SPOT signal, Boehringer light units (BLU); mean over the file's lines of this peptide: 100
[2]
  normalised SPOT signal, Boehringer light units (BLU); mean over the file's lines of this peptide: 11600

B27: Q9BZI7 330-343 (peptide)
chain: KDEKPKRPEDESGR
[1]
  normalised SPOT signal, Boehringer light units (BLU); mean over the file's lines of this peptide: 30.5
[2]
  normalised SPOT signal, Boehringer light units (BLU); mean over the file's lines of this peptide: 314

B28: Q9H6A9 265-278 (peptide)
chain: KDLALLRPSKRQPP
[1]
  normalised SPOT signal, Boehringer light units (BLU); mean over the file's lines of this peptide: 66.4
[2]
  normalised SPOT signal, Boehringer light units (BLU); mean over the file's lines of this peptide: 226

B29: Q9Y6J0 1992-2005 (peptide)
chain: KDPGPPRPHRPEAT
[1]
  normalised SPOT signal, Boehringer light units (BLU); mean over the file's lines of this peptide: 1150
[2]
  normalised SPOT signal, Boehringer light units (BLU); mean over the file's lines of this peptide: 412

B30: Q92508 1232-1245 (peptide)
chain: AMLSIPRPSKRFWM
[1]
  normalised SPOT signal, Boehringer light units (BLU); mean over the file's lines of this peptide: 258
[2]
  normalised SPOT signal, Boehringer light units (BLU); mean over the file's lines of this peptide: 20.1

B31: Q9H7K4 46-60 (peptide)
chain: KDPGPPRPPAGATQ
[1]
  normalised SPOT signal, Boehringer light units (BLU); mean over the file's lines of this peptide: 43.9
[2]
  normalised SPOT signal, Boehringer light units (BLU); mean over the file's lines of this peptide: 229

B32: Q92613 102-115 (peptide)
chain: KDVLFIRPRKYIHS
[1]
  normalised SPOT signal, Boehringer light units (BLU); mean over the file's lines of this peptide: 66.7
[2]
  normalised SPOT signal, Boehringer light units (BLU); mean over the file's lines of this peptide: 86.6

B33: Q99651 220-234 (peptide)
chain: KEMVPAKPPKGLVG
[1]
  normalised SPOT signal, Boehringer light units (BLU); mean over the file's lines of this peptide: 56.3
[2]
  normalised SPOT signal, Boehringer light units (BLU); mean over the file's lines of this peptide: 276

B34: Q9UJU2 290-303 (peptide)
chain: KEQEPKRPHIKKPL
[1]
  normalised SPOT signal, Boehringer light units (BLU); mean over the file's lines of this peptide: 39
[2]
  normalised SPOT signal, Boehringer light units (BLU); mean over the file's lines of this peptide: 63.9

B35: Q9C0A1 71-84 (peptide)
chain: KFLDPARPYKSTVS
[1]
  normalised SPOT signal, Boehringer light units (BLU); mean over the file's lines of this peptide: 20.4
[2]
  normalised SPOT signal, Boehringer light units (BLU); mean over the file's lines of this peptide: 43.5

B36: Q15911 1537-1550 (peptide)
chain: KFLDPSRPYKSTVS
[1]
  normalised SPOT signal, Boehringer light units (BLU); mean over the file's lines of this peptide: 21.4
[2]
  normalised SPOT signal, Boehringer light units (BLU); mean over the file's lines of this peptide: 86.2

B37: Q16632 639-652 (peptide)
chain: KFWDLRRPYEPINS
[1]
  normalised SPOT signal, Boehringer light units (BLU); mean over the file's lines of this peptide: 44.3
[2]
  normalised SPOT signal, Boehringer light units (BLU); mean over the file's lines of this peptide: 61.9

B38: Q9NQ11 1067-1080 (peptide)
chain: KGAPFRRPLYTNVP
[1]
  normalised SPOT signal, Boehringer light units (BLU); mean over the file's lines of this peptide: 36.3
[2]
  normalised SPOT signal, Boehringer light units (BLU); mean over the file's lines of this peptide: 167

B39: O15021 1933-1947 (peptide)
chain: KGPGPQKPPTEADK
[1]
  normalised SPOT signal, Boehringer light units (BLU); mean over the file's lines of this peptide: 59.9
[2]
  normalised SPOT signal, Boehringer light units (BLU); mean over the file's lines of this peptide: 82.6

B40: Q9HC49 341-354 (peptide)
chain: KGRVLKRPPNSVVT
[1]
  normalised SPOT signal, Boehringer light units (BLU); mean over the file's lines of this peptide: 33.1
[2]
  normalised SPOT signal, Boehringer light units (BLU); mean over the file's lines of this peptide: 25.2

B41: P23378 97-110 (peptide)
chain: ANIRLKRPLKMEDP
[1]
  normalised SPOT signal, Boehringer light units (BLU); mean over the file's lines of this peptide: 21.8
[2]
  normalised SPOT signal, Boehringer light units (BLU); mean over the file's lines of this peptide: 228

B42: Q9UH43 133-147 (peptide)
chain: KGSKPVRPPAPGHG
[1]
  normalised SPOT signal, Boehringer light units (BLU); mean over the file's lines of this peptide: 64.8
[2]
  normalised SPOT signal, Boehringer light units (BLU); mean over the file's lines of this peptide: 21200
